Series [1] has as its target T1, β2AR (Homo sapiens, UniProt P07550). In words: Receptor internalization (loss of cell surface receptors, flow cytometry), β2AR. A general note: Flow cytometry measures light scatter and fluorescence of single cells or particles in a stream.
Series [2] concerns the target T2, V2Rβ2CT (Homo sapiens, UniProt P07550+P30518).
T2 construct: the first 342 amino acids of the V2R (Met1-Cys342); the last 72 amino acids of the β2AR (Leu342 to Leu 413); expressed in transfected cells; host or cells: HEK-293
Put plainly: Confocal microscopy of arrestin trafficking with V2Rβ2CT in HEK-293 cells. Type of series: cell-based. The note with it: live HEK-293 cells expressing V2Rβ2CT, 15 min and longer.
Protocol: Twenty-four hours post-transfection cells were plated on collagen-coated 35 mm glass bottom plates. Cells were starved for at least 2 hrs in serum free medium prior to stimulation. After stimulation cells were fixed with 4% paraformaldehyde. For visualizing HA-tagged receptors, fixed cells were permeabilized with 0.01% Triton in PBS containing 2% BSA for 20 min and incubated at room temperature with 12CA5 antibody at 1:500 dilution. The secondary antibody, antimouse IgG conjugated to TexasRed, followed this. Antibody incubations were done for one hour followed by repeated washes using PBS. Cells expressing low and equivalent levels of the fluorescent proteins were carefully selected to examine YFP-β-arrestins. […] Live images were acquired using a heated (37° C.) microscope stage and collected sequentially using single line excitation (488 nm).

Series [3] has as its target T1, β2AR. In words: Coimmunoprecipitation of YFP-β-arrestins with Flag-β2AR in COS-7 cells. In kind it is binding. Further details: expressed in transfected cells. The following applies: Flag-β2AR IP, 15 minutes of agonist treatment. The source says:
A) Stability of the ubiquitin chimera in COS-7 cells. […] The bands on the autorad were quantitated using Fluorimager and graphically represented in the figure. The zero time point represents 100% protein. The graph is an average of three independent experiments. B) Interaction of β-arrestin2-Ub chimera with β2AR. […] After stimulation or not the receptor was immunoprecipitated with anti-Flag beads in the absence (left panels) or presence (right panels) of the inhibitor NEM; the IP was blotted for YFP-β-arrestins with a monoclonal antibody to GFP (top panel). […] The blots are representative of similar blots from three independent experiments.
Immunoprecipitation and Irnmunoblofting—To detect ubiquitinated β-arrestin2, β-arrestin2 with a C-terminal Flag epitope was transiently transfected into COS-7 cells. Cells were serum starved for at least 2 hrs and then stimulated or not for the stipulated times with the appropriate agonists. Cells were solubilized in a lysis buffer (LB) containing 50 mM Hepes (pH7.5), 0.5% NP40, 250 mM NaCl, 2 mM EDTA, 10% (vlv) glycerol, 1 mM sodium orthovanadate, 1 mM sodium fluoride, 1 mM phenylmethylsulfonyl fluoride, leupeptin (5 μg/ml) aprotinin (5 μg/ml), pepstatin A (1 μg/ml) benzaminidine (100 μM) 2 μM MG132 and 10 mM NEM. Soluble extracts were mixed with FLAG M2 affinity beads and rotated at 4° C. overnight. […]

Series [4] concerns the target T1, β2AR. In words: Confocal microscopy of arrestin trafficking with β2AR in HEK-293 cells. Type of series: cell-based. Further details: expressed in transfected cells; host or cells: HEK-293. The following applies: for colocalization with internalized β2AR in endocytic vesicles: fixed HEK-293 cells, HA-β2AR, 15 min isoproterenol; for distribution of YFP fluorescence after isoproterenol: live HEK293 cells over expressing β2AR, 10 μM isoproterenol, 15-30 min. How it is done: Cells were starved for one hour in serum free media. […] Shown are representative confocal images of YFP-fluorescence followed in the same HEK-293 cells treated for 2, 15 and 30 min at 37° C.
HEK-293 cells were transiently transfected with HA-β2AR and YFP-βarrestin2 (A) or YFP-β-arrestin2-Ub (B). After isoproterenol treatment or not the cells were fixed, permeabilized and stained for receptor with the primary antibody 12CA5 and secondary antibody anti mouse IgG conjugated to Texas Red. Shown are confocal images where receptor is visualized in the Red channels and β-arrestin in the green channels. Colocalization of two proteins is seen as yellow in the overlay. The results are representative of three independent experiments.
HEK-293 cells on 10 cm dishes were transiently transfected with HA-β2AR, HA-V2R, HAβ2ARV2CT, or HAV2Rβ2CT, along with β-arr2-GFP, or YFP-βarrestin2, or YFP-β-arrestin2-Ub. Twenty-four hours post-transfection cells were plated on collagen-coated 35 mm glass bottom plates. Cells were starved for at least 2 hrs in serum free medium prior to stimulation. After stimulation cells were fixed with 4% paraformaldehyde. For visualizing HA-tagged receptors, fixed cells were permeabilized with 0.01% Triton in PBS containing 2% BSA for 20 min and incubated at room temperature with 12CA5 antibody at 1:500 dilution. The secondary antibody, antimouse IgG conjugated to TexasRed, followed this. Antibody incubations were done for one hour followed by repeated washes using PBS. Cells expressing low and equivalent levels of the fluorescent proteins were carefully selected to examine YFP-β-arrestins. Confocal images were obtained on Zeiss LSM510 laser scanning microscope using dual excitation (488, 568 nm) and emission (515-540 nm GFP, YFP; 590-610 nm, Texas red) filter sets. Live images were acquired using a heated (37° C.) microscope stage and collected sequentially using single line excitation (488 nm).

The target of series [5] is T1, β2AR.

The source of these data is US7615610B2, “Modified trafficking patterns for arrestin and G-protein-coupled receptors via arrestin-ubiquitin chimera” (Duke University, priority 2003, dated 2009).

On to `CN(C)c1cccc2c(S(=O)(=O)NCCCCCN)cccc12` [MDC, monodansylcadaverine], for which the reduction of internalization in series [1] (pretreatment of cells with 200 μM MDC, data not shown) is 45%.
As for “YFP-β-arrestin2-Ub: YFP-labelled β-arrestin2-ubiquitin chimera from pEYFPC1 (SEQ ID NOS:1-2)”, the “distribution of YFP fluorescence after AVP” value in series [2] is listed as “moved into endocytic vesicles as early as 15 min”. Moreover, the “receptor-bound (coimmunoprecipitated) arrestin bands” value in series [3] is listed as “detectable with the chimeric protein”. In series [4], the “colocalization with internalized β2AR in endocytic vesicles” value is on record as “colocalize with the internalized β2AR” and the “distribution of YFP fluorescence after isoproterenol” value is on record as “redistribute from the plasma membrane to endocytic vesicles”.
Turning to “YFP-β-arrestin2: wild type β-arrestin2 tagged with YFP, comparator”, the “receptor-bound (coimmunoprecipitated) arrestin bands” value in series [3] is “not detectable”. In series [4], the “colocalization with internalized β2AR in endocytic vesicles” value was “did not however contain any YFP-β-arrestin2” and the “distribution of YFP fluorescence after isoproterenol” value is “unaltered at 30 min of isoproterenol treatment”.
Regarding “β-arrestin2: wild type β-arrestin2 overexpressed as comparator”, the “increase in amount of β2AR degradation” value in series [5] was 6-7%. The compound also registered a β2AR internalization in series [1] (HEK293 cells, arrestin overexpressed with Flag-β2AR, 10 μM isoproterenol 30 min, mean±SEM) of 33±1.6%.
